Source: US20230256092A1, “COMBINED USE OF ANTI-CCR8 ANTIBODY AND CHEMOTHERAPEUTIC AGENT” (Shionogi & Co., Ltd., priority 2020, published 2023)

How the values were obtained:
[1] = system: colon cancer-derived Colon26 cells; test: Example 11: hCCR8-KI (KI/KI) mice inoculated with Colon26 cells, oxaliplatin combination (Part 2); format: in vivo, mouse; settings: as Example 6; 2-7B part: oxaliplatin 10, 14, 17 days, antibody 14, 17 days; 19D7 part: oxaliplatin 10, 14 days, antibody 14 days; combinations from 10 days; Student's T one-sided
Description: The back of each hCCR8-KI (KI/KI) mouse (12 weeks old, female) prepared in Test Example 10 was intracutaneously inoculated with 3.5×10^5 colon cancer-derived Colon26 cells (50 uL).
To an oxaliplatin single administration group, saline was intravenously administered 5 days after tumor inoculation, and oxaliplatin (trade name: ELPLAT, Yakult Honsha Company, Limited) at 5 mg/kg body weight was intravenously administered 3 hours after the administration of the saline (N=10). To an anti-mouse CCR8 antibody and oxaliplatin combined administration group, an anti-human CCR8 antibody at 15 mg/kg body weight was intravenously administered 5 days after tumor inoculation, and oxaliplatin at 5 mg/kg body weight was intravenously administered 3 hours after the administration of the anti-mouse CCR8 antibody (N=10). To a control group, saline was intravenously administered 5 days after tumor inoculation, and saline was intravenously administered 3 hours after the administration of the saline (N=10). […] Tumor volumes were measured every 1 to 3 days from 4 days after tumor inoculation (a day before antibody administration). The tumor volume (mm^3) was measured in long diameter (mm)×short diameter (mm)×short diameter (mm)/2, and a significant difference test based on a Mann-Whitney U method (significance level: P<0.05) was conducted. […]

human CCR4 = biological target: T1, human CCR4 (Homo sapiens, UniProt P51679); test: Antigen-binding test on transiently expressing Expi293 cells; parameters: key: an antibody having significantly reduced binding activity was indicated as A; an antibody having binding activity of the detection limit or less was indicated as x; The blank column means that it exhibits the same binding activity as the wild-type human CCR8 (hCCR8); settings: 5, 0.5 and 0.05 ug/mL, in comparison to wild-type hCCR8
T1 construct: expressed in transfected cells; host or cells: Expi293 cells, pcDNA 3.4 vector, transient
T1 sequence (P51679 1-360): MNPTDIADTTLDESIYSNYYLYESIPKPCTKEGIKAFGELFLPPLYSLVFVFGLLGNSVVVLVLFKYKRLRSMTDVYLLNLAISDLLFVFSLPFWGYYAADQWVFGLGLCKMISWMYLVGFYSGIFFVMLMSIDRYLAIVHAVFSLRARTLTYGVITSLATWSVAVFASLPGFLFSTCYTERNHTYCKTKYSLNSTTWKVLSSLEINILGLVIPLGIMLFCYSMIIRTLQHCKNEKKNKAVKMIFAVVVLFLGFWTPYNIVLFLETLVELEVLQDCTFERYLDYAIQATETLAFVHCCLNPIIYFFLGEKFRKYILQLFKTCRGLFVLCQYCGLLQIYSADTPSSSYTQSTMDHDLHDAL
From the text: (§1) The gene encoding the full length of human CCR8 (UniProtKB/Swiss-Prot: P51685, SEQ ID NO: 1), the gene encoding the full length of human CCR4 (UniProtKB/Swiss-Prot: P51679, SEQ ID NO: 48) and the gene encoding the full length of mouse CCR8 (UniProtKB/Swiss-Prot: P56484, SEQ ID NO: 39) were cloned into pcDNA 3.4 vectors, respectively. These vectors were used for transfection to produce Expi293 cells transiently expressing human CCR8, human CCR4, or mouse CCR8. These cells were reacted with a dilution series of the purified antibodies of each clone, and the binding properties thereof were evaluated by detection with Alexa488-labeled anti-mouse IgG antibody (manufactured by Thermo Fisher Scientific). As a result, every antibody bound to human CCR8, but not to human CCR4 and mouse CCR8 at all.

mouse CCR8 = biological target: T2, mouse CCR8 (Mus musculus, UniProt P56484); test: as above; parameters: key: an antibody having significantly reduced binding activity was indicated as A; an antibody having binding activity of the detection limit or less was indicated as x; The blank column means that it exhibits the same binding activity as the wild-type human CCR8 (hCCR8); settings: 5, 0.5 and 0.05 ug/mL, in comparison to wild-type hCCR8
T2 construct: expressed in transfected cells; host or cells: Expi293 cells, pcDNA 3.4 vector, transient
T2 sequence (P56484 1-353): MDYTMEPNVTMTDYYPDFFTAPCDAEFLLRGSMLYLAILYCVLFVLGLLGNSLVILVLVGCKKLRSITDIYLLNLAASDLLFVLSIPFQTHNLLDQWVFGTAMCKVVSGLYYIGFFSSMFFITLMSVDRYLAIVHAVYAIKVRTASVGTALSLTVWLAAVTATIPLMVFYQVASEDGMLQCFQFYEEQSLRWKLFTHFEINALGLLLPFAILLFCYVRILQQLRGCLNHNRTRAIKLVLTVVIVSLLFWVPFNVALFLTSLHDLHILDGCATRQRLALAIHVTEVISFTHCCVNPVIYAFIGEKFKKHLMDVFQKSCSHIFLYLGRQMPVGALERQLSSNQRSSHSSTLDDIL
From the text: as §1

loop1 hCCR4-hCCR8 = biological target: T3, loop1 hCCR4-hCCR8 (Homo sapiens, UniProt P51685, L95A/L96A/M105L/T103L/V104G); test: Antigen-binding test, chimera; settings: 5, 0.5 and 0.05 ug/mL, in comparison to wild-type hCCR8
T3 construct: expressed in transfected cells; host or cells: Expi293 cells (method similar to that for the wild type)

loop2 hCCR4-hCCR8 = biological target: T4, loop2 hCCR4-hCCR8 (Homo sapiens, UniProt P51685, A175Y/D178R/F186K/F197L/F200L/G179N/I196V/K193T/K201E/L181T/L192T/M202I/N188S/N199S/Q173T/Q182Y/Q189L/Q190N/S176T/S185T/T191S/T198S/V174C/V180H/Y172S/Y184K); test: Antigen-binding test, chimera; settings: 5, 0.5 and 0.05 ug/mL, in comparison to wild-type hCCR8
T4 construct: expressed in transfected cells; host or cells: Expi293 cells (method similar to that for the wild type)

hCCR8 (L5A) = biological target: T5, hCCR8 (L5A) (Homo sapiens, UniProt P51685, L5A); test: Antigen-binding test, human CCR8 point mutant; settings: in comparison to wild-type hCCR8
T5 construct: expressed in transfected cells; host or cells: Expi293 cells (method similar to that for the wild type)

hCCR8 (T11A) = biological target: T6, hCCR8 (T11A) (Homo sapiens, UniProt P51685, T11A); test: Antigen-binding test, human CCR8 point mutant; settings: in comparison to wild-type hCCR8
T6 construct: expressed in transfected cells; host or cells: Expi293 cells (method similar to that for the wild type)
From the text: (§2) Further, to analyze in more detail the N-terminal region that is an epitope region common to all clones having strong neutralization, the human CCR8 point mutants shown in Table 2 were produced. […] It is thus considered that the neutralizing antibodies recognize Y at position 17. In addition, although clone No. 8F7 is only shown in Table 2, plural other neutralizing antibodies had reduced binding activity to the mutant in which I at position 20 of human CCR8 is substituted with A (hCCR8 (I20A)). It is thus considered that some neutralizing antibodies have stereo-structural recognition to bind to isoleucine at position 20.

hCCR8 (K35A) = biological target: T7, hCCR8 (K35A) (Homo sapiens, UniProt P51685, K35A); test: Antigen-binding test, human CCR8 point mutant; parameters: key: an antibody having significantly reduced binding activity was indicated as A; an antibody having binding activity of the detection limit or less was indicated as x; The blank column means that it exhibits the same binding activity as the wild-type human CCR8 (hCCR8); settings: in comparison to wild-type hCCR8
T7 construct: expressed in transfected cells; host or cells: Expi293 cells (method similar to that for the wild type)
From the text: as §2

hCCR8 (I20A) = biological target: T8, hCCR8 (I20A) (Homo sapiens, UniProt P51685, I20A); test: Antigen-binding test, human CCR8 point mutant; settings: in comparison to wild-type hCCR8
T8 construct: expressed in transfected cells; host or cells: Expi293 cells (method similar to that for the wild type)
From the text: as §2

hCCR8 (I30A) = biological target: T9, hCCR8 (I30A) (Homo sapiens, UniProt P51685, I30A); test: Antigen-binding test, human CCR8 point mutant; settings: in comparison to wild-type hCCR8
T9 construct: expressed in transfected cells; host or cells: Expi293 cells (method similar to that for the wild type)
From the text: as §2

B1: 2-7B: rat anti-human CCR8 antibody; light chain SEQ ID NO: 37, heavy chain SEQ ID NO: 38 (antibody, V domains shown)
VH: EVQLVESDGGLVQPGRSLKLSCAASGFTFSDYYMAWVRQAPTKGLEWVATITYDVYSTYYRDSVKGRFTISRDNAKSTLYLQMDSLRSEDTATYYCARHGGDGYNSGNWFAYWGQGTLVTVSS
VL: DIVLTQSPALAVSLGQRATISCRASQSVSISRYNIMHWYQQKPGQQPKLLIYRASNLASGIPARFSGSGSGTDFTLTINPVQADDIATYYCQQSRESPPTFGGGTKLELKR
modifications: 2-7B VH; 2-7B VL
**Q.** With B1 as the molecule, how does the “tumor volume as compared to the control group” value [1] read?
**A.** Its value is “no significant decrease”.

B2: 1H4: mouse anti-human CCR8 neutralizing antibody; light chain SEQ ID NO: 29, heavy chain SEQ ID NO: 30 (antibody, V domains shown)
VH: EVQLVESGGRLVQPKGSLKLSCAASGFTFNTYAMYWIRQAPGKGLEWVARIRSKSNNYATYYADSVKDRFTISRDDSQSMLYLQMNNLKTEDTAMYYCVRARFYYSDYGYAMDYWGQGTSVTVSS
VL: DIVMTQAAPSVPVTPGESVSISCRSSKSLLHSNGNTYLYWFLQRPGQSPQLLIYRMSNLASGVPDRFSASGSGTAFTLRISRVEAEDVGVYYCMQHLEYPLTFGAGTKLELKR
modifications: 1H4 VH; 1H4 VL
**Q.** Which “binding activity, hCCR4” value (human CCR4) does the source give for B2 here?
**A.** The value was “x”.

**Q.** What about the “binding activity, mCCR8” value (mouse CCR8) of the same molecule?
**A.** The value was “x”.

**Q.** And the “binding activity, loop1 hCCR4-hCCR8” value (loop1 hCCR4-hCCR8)?
**A.** Its value is “Δ”.

**Q.** And the “binding activity, loop2 hCCR4-hCCR8” value (loop2 hCCR4-hCCR8)?
**A.** Its value is “Δ”.

**Q.** What about the “binding activity, hCCR8 (L5A)” value (hCCR8 (L5A)) of the same molecule?
**A.** Its value is “Δ”.

**Q.** What about the “binding activity, hCCR8 (T11A)” value (hCCR8 (T11A)) of the same molecule?
**A.** The value was “Δ”.

**Q.** What about the “binding activity, hCCR8 (K35A)” value (hCCR8 (K35A)) of the same molecule?
**A.** The value was “x”.

B3: 8F7: mouse anti-human CCR8 neutralizing antibody; light chain SEQ ID NO: 33, heavy chain SEQ ID NO: 34 (antibody, V domains shown)
VH: EVQLVESGGRLVQPKRSLKLSCAASGFTFNPYAMYWIRQAPGQGLEWVARIRSKSNNYATYYADSVKDRFTISRDDSQSMLYLQMNNLKTEDTAMYYCVRGHQGTMDYWGQGTSVTVSS
VL: DIVMTQAAPSVPVTPGESVSISCRSSKSLLHSNGNTYLYWFLQRPGQSPQLLTYRMSNLASGVPDRFSGSGSGTAFTLRISRVEAEDVGVYYCMQHLEYPFTFGGGTKLEIKR
modifications: 8F7 VH; 8F7 VL
**Q.** How did the “binding activity, hCCR4” value (human CCR4) turn out when B3 was run?
**A.** The value was “x”.

**Q.** What about the “binding activity, mCCR8” value (mouse CCR8) of the same molecule?
**A.** Its value is “x”.

**Q.** What about the “binding activity, loop2 hCCR4-hCCR8” value (loop2 hCCR4-hCCR8) of the same molecule?
**A.** Its value is “Δ”.

**Q.** What about the “binding activity, hCCR8 (I20A)” value (hCCR8 (I20A)) of the same molecule?
**A.** The value was “Δ”.

**Q.** And the “binding activity, hCCR8 (I30A)” value (hCCR8 (I30A))?
**A.** Its value is “Δ”.

**Q.** And the “binding activity, hCCR8 (K35A)” value (hCCR8 (K35A))?
**A.** Its value is “Δ”.

B4: 2C7: mouse anti-human CCR8 neutralizing antibody; light chain SEQ ID NO: 35, heavy chain SEQ ID NO: 36 (antibody, V domains shown)
VH: QVQLKQSGPSLVQPSQSLSITCTVSGFSLTAYGVHWIRQSPGKGQEWLGVIWRGGSTDYNAAFMSRLTITKDNSKSQVFFKMNSLQADDTAIYYCAKKGGSYAMDYWGQGTSVTVSS
VL: DVVLTQTPLSLPVSLGGQASISCRSSQSLVHSNGNTYLHWYLQKPGQSPKLLIYKVSNRFSGVPDRFSGSGSGTDFTLKISRVEAEDLGVYFCSQSTQVPLTFGAGTKLELKR
modifications: 2C7 VH; 2C7 VL
**Q.** How did the “binding activity, hCCR4” value (human CCR4) turn out when B4 was run?
**A.** The value was “x”.

**Q.** And the “binding activity, mCCR8” value (mouse CCR8)?
**A.** The value was “x”.
